Measured values: publication PMC5997747

B1: recombinant human NCAM2 FnIII1 domain (domain or fragment)
chain: SPYGVKIIELSQTTAKVSFNKPDSHGGVPIHHYQVDVKEVASEIWKIVRSHGVQTMVVLNNLEPNTTYEIRVAAVNGKGQGDYSKIEIFQTLPV
B2: recombinant human NCAM2 FnIII1-2 double domain (expressed in E. coli) (domain or fragment)
chain: SPYGVKIIELSQTTAKVSFNKPDSHGGVPIHHYQVDVKEVASEIWKIVRSHGVQTMVVLNNLEPNTTYEIRVAAVNGKGQGDYSKIEIFQTLPVREPSPPSIHGQPSSGKSFKLSITKQDDGGAPILEYIVKYRSKDKEDQWLEKKVQGNKDHIILEHLQWTMGYEVQITAANRLGYSEPTVYEFSMPPKPNIIKD

Each molecule was assayed against FGFR1β (IIIc)/Fc chimera (assay: SPR; BIAcore 2000, 25 °C, 10 mM PBS pH 7.4; about 1000 RU FGFR1β (IIIc)/Fc and 750 RU human IgG1 Fc (control cell) immobilised on a CM4 chip by amine coupling; NCAM2 domains injected at 20-30 μl/min; steady state affinity fit, Kd roughly estimated).
Molecule “recombinant human NCAM2 FnIII2 domain (from UniProt O15394 592-693) (domain or fragment)” has a Kd of 4400 nM. “NCAM2 FnIII1-2 domains expressed from P. pastoris (domain or fragment)” showed a Kd of 400 nM. For B1, the Kd was 290 nM. In the case of B2, the Kd is reported as 130 nM.
